According to paper PMC6697466, “Interaction Between the a3 Region of Factor VIII and the TIL’E’ Domains of the von Willebrand Factor” (Biophysical Journal, 2019):
Changes are numbered by the printed parent chain. In names and notes the source's numbering stands. Several values for one entry are separate records, joined by “and”; a condition that tells them apart may be missing. Identical values can stand only once. Entries after “also recorded” stand apart in the source; their conditions may differ. Blank lines part the entries; values can stand above or below the molecule they belong to. Square brackets hold non-standard residues; d marks the D form. Ends that are not written are not given here. sY = N[C@@H](Cc1ccc(OS(=O)(=O)O)cc1)C(=O)O

How the values were obtained:
[1] = molecular target: B-domain deleted FVIII (N8, turoctocog alfa) (UniProt P00451); assay: ITC; MicroCal iTC200, 25 °C, 19 injections (first 0.4 uL, the rest 2 uL), 120 s between injections; who was in the syringe and the concentrations not given
[2] = system: TIL’E’; assay: ITC of FVIII a3 peptides with TIL’E’; type: binding; details: 25°C, higher concentrations not feasible due to solubility
Procedure: (§1) ITC experiments were performed on a MicroCal iTC200 (Malvern Instruments, Malvern, UK) at 25°C. All experiments were performed with a total of 19 injections (the first injection 0.4 μL, the rest 2 μL), with 120 s between each injection and an initial delay of 60 s. The reference power was set to 6 μcal/s, and the syringe was stirred at 750 or 1000 Rpm depending on the specifications of the syringe. The concentrations of proteins used are specified in the figure legends.

[3] = system: VWF TIL’E’ R816W; assay: NMR 15N-1H HSQC of VWF TIL’E’ R816W with FVIII a3sTyr1664-sTyr1680; type: binding; details: five molar excess of peptide, 298 K
Procedure: All NMR spectra were recorded at 298 K on Bruker Avance III 700 MHz or Bruker Avance III HD 800 MHz spectrometers equipped with cryoprobes. NMR samples consisted of 10–300 μM isotope labeled TIL’E’ in 10 mM HEPES 300 mM NaCl 5 mM CaCl2 5% D2O pH 7.3.
Two-dimensional ^15N-^1H heteronuclear single quantum correlation (HSQC) spectra ([39]) were recorded with 3-9-19 Watergate, whereas two-dimensional methyl–transverse relaxation optimized spectroscopy (TROSY) experiments were recorded using the standard heteronuclear multiple quantum coherence pulse scheme ([40]).
Arg816 is located in the VWF TIL’ β3-β4 sheet ([31]), where the largest chemical shift changes were observed (Figs. 2 and 3). […] However, the most affected residues are located far from each other on the three-dimensional structure of VWF TIL’E’.

[4] = system: FVIII; details: full-length VWF R816W; cited from earlier work
Text: Arg816 is located in the VWF TIL’ β3-β4 sheet ([31]), where the largest chemical shift changes were observed (Figs. 2 and 3).

[5] = molecular target: T1, VWF TIL’E’ (construct 1, residues 764–865 of VWF) (UniProt P04275 764-865); assay: NMR titration; 15N-1H HSQC of 100 uM 15N-labelled VWF TIL’E’ free and with ~500 uM (five molar excess) unlabelled FVIII a3 peptide; 298 K; 10 mM HEPES 300 mM NaCl 5 mM CaCl2 5% D2O pH 7.3; saturation not reached, upper bound of Kd from chemical shift changes; details: both partners purified
T1 construct: von Willebrand factor, TIL’E’ domains, residues 764-865; mature VWF starts at Ser764; enterokinase site GTDDDDK immediately before residue 764; every result printed for plain 'VWF TIL’E’' is written on this molecule; Uniformly 15N-labelled or ILV-13CH3/2H-labelled in the NMR experiments; also called wild-type VWF TIL’E’; source: thioredoxin and His6 tag cut off with enterokinase; not shown: …
T1 sequence (P04275 764-865): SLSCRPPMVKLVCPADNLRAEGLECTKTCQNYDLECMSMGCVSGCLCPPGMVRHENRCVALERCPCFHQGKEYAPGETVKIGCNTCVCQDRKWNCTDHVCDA

[6] = system: FVIII; assay: ITC of VWF TIL’E’ constructs and mutants with FVIII; type: binding; details: 25°C; for N: ITC stoichiometry
Procedure: as §1

[7] = ITC, three independent ITC experiments

Molecule: VWF TIL’E’ (construct 1, residues 764–865 of VWF) (from UniProt P04275 764-865) (domain or fragment)
Kd [1]: 0.71 µM
dH [1]: -12 kcal/mol
stoichiometry N [1]: 1

Molecule: VWF R816W: full-length VWF R816W, severe VWD type 2N mutation
binding to FVIII in ELISA [4]: does not bind FVIII

Molecule: EITRTTLQSDQEEID[sY]DDTISVEMKKEDFDI[sY]DEDENQSPR [FVIII a3 peptide a3_(sTyr1664-sTyr1680) (residues 1649–1689, Tyr1664 and Tyr1680 sulfated)]
Kd [5]: < 25000 µM

B1: VWF GAMG-TIL’E’: four amino acids GAMG followed by residues 766–864 of VWF (protein)
chain: GAMGSCRPPMVKLVCPADNLRAEGLECTKTCQNYDLECMSMGCVSGCLCPPGMVRHENRCVALERCPCFHQGKEYAPGETVKIGCNTCVCQDRKWNCTDHVCD
binding to FVIII by ITC (in words) ([6]; ITC): substantially reduced binding; also recorded: the binding to FVIII had been abrogated; also recorded: unable to bind FVIII with micromolar affinity

B3: VWF R816W TIL’E’: VWD type 2N mutation R816W introduced into the construct 3 background (protein)
chain: SLSCRPPMVKLVCPADNLRAEGLECTKTCQNYDLECMSMGCVSGCLCPPGMVWHENRCVALERCPCFHQGKEYAPGETVKIGCNTCVCQDRKWNCTDHVCDA
modifications: left off: His6, N-terminal, cleaved | DsbC, N-terminal, cleaved | HPC4 (…: ALA linker and …), C-terminal, state not stated
notes: VWD type 2N mutation R816W introduced into the construct 3 background
binding to FVIII by ITC (in words) ([6]; ITC, listed as VWF TIL’E R816W): no binding was observed

B4: VWF R854Q TIL’E’: VWD type 2N mutation R854Q introduced into the construct 1 background (protein)
chain: B3 chain with W53R, R91Q
modifications: left off: thioredoxin, N-terminal, cleaved | His6, N-terminal, cleaved
notes: VWD type 2N mutation R854Q introduced into the construct 1 background
N ([6]; one run): 1.29 ± 0.03
binding to FVIII by ITC (in words) ([6]; ITC): Weak binding
increase in Kd compared to the wild-type ([6]; ITC): about an order of magnitude
Kd ([6]; ITC, one run): 7.2 ± 0.6 µM
ΔH ([6]; ITC, one run): -7.5 ± 0.2 kcal/mol

B5: R854K: mutation R854K introduced into the construct 1 background (protein)
chain: B3 chain with W53R, R91K
modifications: left off: thioredoxin, N-terminal, cleaved | His6, N-terminal, cleaved
notes: mutation R854K introduced into the construct 1 background
Kd ([6]; ITC, n not given): 25 ± 20 µM

Further lines, with some results ahead:

Kd [1]: 0.64 µM
Molecule: VWF TIL’E’-ALA-HPC4 (construct 3, residues 764–865 with C-terminal HPC4 tag), from E. coli (from UniProt P04275 764-865) (domain or fragment)

Kd [1]: 0.75 µM
Molecule: VWF TIL’E’-ALA-HPC4 expressed in HKB11 cell line (construct 4) (domain or fragment)

binding to TIL’E’ by ITC (in words) [2]: no high-affinity binding
Molecule: CC[C@H](C)[C@H](NC(=O)[C@H](CC(=O)O)NC(=O)[C@H](Cc1ccccc1)NC(=O)[C@H](CC(=O)O)NC(=O)[C@H](CCC(=O)O)NC(=O)[C@H](CCCCN)NC(=O)[C@H](CCCCN)NC(=O)[C@H](CCSC)NC(=O)[C@H](CCC(=O)O)NC(=O)[C@@H](NC(=O)[C@H](CO)NC(=O)[C@@H](NC(=O)[C@@H](NC(=O)[C@H](CC(=O)O)NC(=O)[C@H](CC(=O)O)NC(=O)[C@H](Cc1ccc(OS(=O)(=O)O)cc1)NC(=O)[C@H](CC(=O)O)NC(=O)[C@@H](NC(=O)[C@H](CCC(=O)O)NC(=O)[C@H](CCC(=O)O)NC(=O)[C@H](CCC(N)=O)NC(=O)[C@H](CC(=O)O)NC(=O)[C@H](CO)NC(=O)[C@H](CCC(N)=O)NC(=O)[C@H](CC(C)C)NC(=O)[C@@H](NC(=O)[C@@H](NC(=O)[C@H](CCCNC(=N)N)NC(=O)[C@@H](NC(=O)[C@@H](NC(=O)[C@@H](N)CCC(=O)O)[C@@H](C)CC)[C@@H](C)O)[C@@H](C)O)[C@@H](C)O)[C@@H](C)CC)[C@@H](C)O)[C@@H](C)CC)C(C)C)C(=O)N[C@@H](Cc1ccc(OS(=O)(=O)O)cc1)C(=O)N[C@@H](CC(=O)O)C(=O)N[C@@H](CCC(=O)O)C(=O)N[C@@H](CC(=O)O)C(=O)N[C@@H](CCC(=O)O)C(=O)N[C@@H](CC(N)=O)C(=O)N[C@@H](CCC(N)=O)C(=O)N[C@@H](CO)C(=O)N1CCC[C@H]1C(=O)N[C@@H](CCCNC(=N)N)C(=O)O [a3sTyr1664-sTyr1680]
effect of R816W on affinity between FVIII a3 and VWF TIL’E’ [3]: decreases the affinity

Kd [1]: 25 µM
Molecule: VWF TIL’E’ R854K (in the construct 1 background) (from UniProt P04275 764-865) (domain or fragment)

Kd [1]: 7.2 µM
dH [1]: -7.5 kcal/mol
stoichiometry N [1]: 1.29
Molecule: VWF TIL’E’ R854Q (in the construct 1 background) (from UniProt P04275 764-865) (domain or fragment)

binding to FVIII by ITC (in words) ([6]; ITC): micromolar interaction
Kd [6, 7]: 0.7 µM and 0.71 µM
B2: VWF TIL’E’: residues 764–865 of VWF; constructs 1 and 3 used interchangeably (protein)
chain: B3 chain with W53R
modifications: left off: thioredoxin, N-terminal, cleaved | His6, N-terminal, cleaved
notes: residues 764–865 of VWF; constructs 1 and 3 used interchangeably
N ([6]; three independent ITC experiments): 1.0 ± 0.3
ΔH [6, 7]: -12.0 ± 1.3 kcal/mol
